Experimental data published in publication PMC8564334.

Test system: Histone H3;Histone H4 (His6-TEV) (Drosophila melanogaster;Drosophila melanogaster)
Test: restriction enzyme protection
Conditions: purified tetrasome, Wheat germ cell-free co-expression with NAP1 at 26 C for 6 h, TALON purification in 10 mM Tris/HCl pH 7.4, 40 mM NaCl (elution 250 mM imidazole), 6% native …

601_185bp
binding signal (% protection from PmlI) (37 C): 81
binding signal (% protection from BsiWI) (55 C): 93.6
